B1: [N-terminal(C18 diacid-gGlu), des1, 4Q, 16Q, 30S, 31G]mimylin (peptide)
peptide: {C18 diacid-γGlu}-ASQLSTAALGRLSAQLHELATLPRTETGSGSP-NH2
SMILES: CC(C)C[C@H](NC(=O)[C@H](C)NC(=O)[C@H](C)NC(=O)[C@@H](NC(=O)[C@H](CO)NC(=O)[C@H](CC(C)C)NC(=O)[C@H](CCC(N)=O)NC(=O)[C@H](CO)NC(=O)[C@H](C)NC(=O)CC[C@H](NC(=O)CCCCCCCCCCCCCCCCC(=O)O)C(=O)O)[C@@H](C)O)C(=O)NCC(=O)N[C@@H](CCCNC(=N)N)C(=O)N[C@@H](CC(C)C)C(=O)N[C@@H](CO)C(=O)N[C@@H](C)C(=O)N[C@@H](CCC(N)=O)C(=O)N[C@@H](CC(C)C)C(=O)N[C@@H](Cc1c[nH]cn1)C(=O)N[C@@H](CCC(=O)O)C(=O)N[C@@H](CC(C)C)C(=O)N[C@@H](C)C(=O)N[C@H](C(=O)N[C@@H](CC(C)C)C(=O)N1CCC[C@H]1C(=O)N[C@@H](CCCNC(=N)N)C(=O)N[C@H](C(=O)N[C@@H](CCC(=O)O)C(=O)N[C@H](C(=O)NCC(=O)N[C@@H](CO)C(=O)NCC(=O)N[C@@H](CO)C(=O)N1CCC[C@H]1C(N)=O)[C@@H](C)O)[C@@H](C)O)[C@@H](C)O
notes: also called Ex. #87
B2: [N-terminal(C18 diacid-gGlu), des1, 4Q, 30S, 31G]mimylin (peptide)
peptide: {C18 diacid-γGlu}-ASQLSTAALGRLSAELHELATLPRTETGSGSP-NH2
SMILES: CC(C)C[C@H](NC(=O)[C@H](C)NC(=O)[C@H](C)NC(=O)[C@@H](NC(=O)[C@H](CO)NC(=O)[C@H](CC(C)C)NC(=O)[C@H](CCC(N)=O)NC(=O)[C@H](CO)NC(=O)[C@H](C)NC(=O)CC[C@H](NC(=O)CCCCCCCCCCCCCCCCC(=O)O)C(=O)O)[C@@H](C)O)C(=O)NCC(=O)N[C@@H](CCCNC(=N)N)C(=O)N[C@@H](CC(C)C)C(=O)N[C@@H](CO)C(=O)N[C@@H](C)C(=O)N[C@@H](CCC(=O)O)C(=O)N[C@@H](CC(C)C)C(=O)N[C@@H](Cc1c[nH]cn1)C(=O)N[C@@H](CCC(=O)O)C(=O)N[C@@H](CC(C)C)C(=O)N[C@@H](C)C(=O)N[C@H](C(=O)N[C@@H](CC(C)C)C(=O)N1CCC[C@H]1C(=O)N[C@@H](CCCNC(=N)N)C(=O)N[C@H](C(=O)N[C@@H](CCC(=O)O)C(=O)N[C@H](C(=O)NCC(=O)N[C@@H](CO)C(=O)NCC(=O)N[C@@H](CO)C(=O)N1CCC[C@H]1C(N)=O)[C@@H](C)O)[C@@H](C)O)[C@@H](C)O
notes: also called Ex. #78
B3: [N-terminal(C18 diacid)]mimylin (peptide)
peptide: {C18 diacid}-EASELSTAALGRLSAELHELATLPRTETGPESP-NH2
SMILES: CC(C)C[C@H](NC(=O)[C@H](C)NC(=O)[C@H](C)NC(=O)[C@@H](NC(=O)[C@H](CO)NC(=O)[C@H](CC(C)C)NC(=O)[C@H](CCC(=O)O)NC(=O)[C@H](CO)NC(=O)[C@H](C)NC(=O)[C@H](CCC(=O)O)NC(=O)CCCCCCCCCCCCCCCCC(=O)O)[C@@H](C)O)C(=O)NCC(=O)N[C@@H](CCCNC(=N)N)C(=O)N[C@@H](CC(C)C)C(=O)N[C@@H](CO)C(=O)N[C@@H](C)C(=O)N[C@@H](CCC(=O)O)C(=O)N[C@@H](CC(C)C)C(=O)N[C@@H](Cc1c[nH]cn1)C(=O)N[C@@H](CCC(=O)O)C(=O)N[C@@H](CC(C)C)C(=O)N[C@@H](C)C(=O)N[C@H](C(=O)N[C@@H](CC(C)C)C(=O)N1CCC[C@H]1C(=O)N[C@@H](CCCNC(=N)N)C(=O)N[C@H](C(=O)N[C@@H](CCC(=O)O)C(=O)N[C@H](C(=O)NCC(=O)N1CCC[C@H]1C(=O)N[C@@H](CCC(=O)O)C(=O)N[C@@H](CO)C(=O)N1CCC[C@H]1C(N)=O)[C@@H](C)O)[C@@H](C)O)[C@@H](C)O
notes: also called Ex. #2
B4: [N-terminal(C18 diacid), 32H]mimylin (peptide)
peptide: {C18 diacid}-EASELSTAALGRLSAELHELATLPRTETGPEHP-NH2
SMILES: CC(C)C[C@H](NC(=O)[C@H](C)NC(=O)[C@H](C)NC(=O)[C@@H](NC(=O)[C@H](CO)NC(=O)[C@H](CC(C)C)NC(=O)[C@H](CCC(=O)O)NC(=O)[C@H](CO)NC(=O)[C@H](C)NC(=O)[C@H](CCC(=O)O)NC(=O)CCCCCCCCCCCCCCCCC(=O)O)[C@@H](C)O)C(=O)NCC(=O)N[C@@H](CCCNC(=N)N)C(=O)N[C@@H](CC(C)C)C(=O)N[C@@H](CO)C(=O)N[C@@H](C)C(=O)N[C@@H](CCC(=O)O)C(=O)N[C@@H](CC(C)C)C(=O)N[C@@H](Cc1c[nH]cn1)C(=O)N[C@@H](CCC(=O)O)C(=O)N[C@@H](CC(C)C)C(=O)N[C@@H](C)C(=O)N[C@H](C(=O)N[C@@H](CC(C)C)C(=O)N1CCC[C@H]1C(=O)N[C@@H](CCCNC(=N)N)C(=O)N[C@H](C(=O)N[C@@H](CCC(=O)O)C(=O)N[C@H](C(=O)NCC(=O)N1CCC[C@H]1C(=O)N[C@@H](CCC(=O)O)C(=O)N[C@@H](Cc1c[nH]cn1)C(=O)N1CCC[C@H]1C(N)=O)[C@@H](C)O)[C@@H](C)O)[C@@H](C)O
notes: also called Ex. #18
B5: [N-terminal(C20 diacid-gGlu), 1A, 23Y, 30S, 31G]mimylin (peptide)
peptide: {C20 diacid-γGlu}-AASELSTAALGRLSAELHELATYPRTETGSGSP-NH2
SMILES: CC(C)C[C@H](NC(=O)[C@H](C)NC(=O)[C@H](C)NC(=O)[C@@H](NC(=O)[C@H](CO)NC(=O)[C@H](CC(C)C)NC(=O)[C@H](CCC(=O)O)NC(=O)[C@H](CO)NC(=O)[C@H](C)NC(=O)[C@H](C)NC(=O)CC[C@H](NC(=O)CCCCCCCCCCCCCCCCCCC(=O)O)C(=O)O)[C@@H](C)O)C(=O)NCC(=O)N[C@@H](CCCNC(=N)N)C(=O)N[C@@H](CC(C)C)C(=O)N[C@@H](CO)C(=O)N[C@@H](C)C(=O)N[C@@H](CCC(=O)O)C(=O)N[C@@H](CC(C)C)C(=O)N[C@@H](Cc1c[nH]cn1)C(=O)N[C@@H](CCC(=O)O)C(=O)N[C@@H](CC(C)C)C(=O)N[C@@H](C)C(=O)N[C@H](C(=O)N[C@@H](Cc1ccc(O)cc1)C(=O)N1CCC[C@H]1C(=O)N[C@@H](CCCNC(=N)N)C(=O)N[C@H](C(=O)N[C@@H](CCC(=O)O)C(=O)N[C@H](C(=O)NCC(=O)N[C@@H](CO)C(=O)NCC(=O)N[C@@H](CO)C(=O)N1CCC[C@H]1C(N)=O)[C@@H](C)O)[C@@H](C)O)[C@@H](C)O
notes: also called Ex. #57
B6: [N-terminal(C20 diacid-gGlu), 23Y, 30S, 31G]mimylin (peptide)
peptide: {C20 diacid-γGlu}-EASELSTAALGRLSAELHELATYPRTETGSGSP-NH2
SMILES: CC(C)C[C@H](NC(=O)[C@H](C)NC(=O)[C@H](C)NC(=O)[C@@H](NC(=O)[C@H](CO)NC(=O)[C@H](CC(C)C)NC(=O)[C@H](CCC(=O)O)NC(=O)[C@H](CO)NC(=O)[C@H](C)NC(=O)[C@H](CCC(=O)O)NC(=O)CC[C@H](NC(=O)CCCCCCCCCCCCCCCCCCC(=O)O)C(=O)O)[C@@H](C)O)C(=O)NCC(=O)N[C@@H](CCCNC(=N)N)C(=O)N[C@@H](CC(C)C)C(=O)N[C@@H](CO)C(=O)N[C@@H](C)C(=O)N[C@@H](CCC(=O)O)C(=O)N[C@@H](CC(C)C)C(=O)N[C@@H](Cc1c[nH]cn1)C(=O)N[C@@H](CCC(=O)O)C(=O)N[C@@H](CC(C)C)C(=O)N[C@@H](C)C(=O)N[C@H](C(=O)N[C@@H](Cc1ccc(O)cc1)C(=O)N1CCC[C@H]1C(=O)N[C@@H](CCCNC(=N)N)C(=O)N[C@H](C(=O)N[C@@H](CCC(=O)O)C(=O)N[C@H](C(=O)NCC(=O)N[C@@H](CO)C(=O)NCC(=O)N[C@@H](CO)C(=O)N1CCC[C@H]1C(N)=O)[C@@H](C)O)[C@@H](C)O)[C@@H](C)O
notes: also called Ex. #34

Numbered stars: 1 amine (or outer) side, 2 acyl side, 3 side chain; on linkers, the order of the positions; unused ones are H or OH. * marks the point of attachment. C20 diacid = O=C(O)CCCCCCCCCCCCCCCCCCC(=O)*; C18 diacid = O=C(O)CCCCCCCCCCCCCCCCC(=O)*; C16 diacid = O=C(O)CCCCCCCCCCCCCCC(=O)*; γGlu = O=C(O)[C@H](CCC(=O)[*:2])N[*:1]; C14 diacid = O=C(O)CCCCCCCCCCCCC(=O)*; C12 diacid = O=C(O)CCCCCCCCCCC(=O)*; Palmitoyl = CCCCCCCCCCCCCCCC(=O)*; AEEA = NCCOCCOCC(=O)O

The experiment concerns the target T1, human calcitonin receptor (human, UniProt P30988 25-474).
T1 construct: whole, on cells; also called hCT-R; hCTR
T1 sequence (looked up): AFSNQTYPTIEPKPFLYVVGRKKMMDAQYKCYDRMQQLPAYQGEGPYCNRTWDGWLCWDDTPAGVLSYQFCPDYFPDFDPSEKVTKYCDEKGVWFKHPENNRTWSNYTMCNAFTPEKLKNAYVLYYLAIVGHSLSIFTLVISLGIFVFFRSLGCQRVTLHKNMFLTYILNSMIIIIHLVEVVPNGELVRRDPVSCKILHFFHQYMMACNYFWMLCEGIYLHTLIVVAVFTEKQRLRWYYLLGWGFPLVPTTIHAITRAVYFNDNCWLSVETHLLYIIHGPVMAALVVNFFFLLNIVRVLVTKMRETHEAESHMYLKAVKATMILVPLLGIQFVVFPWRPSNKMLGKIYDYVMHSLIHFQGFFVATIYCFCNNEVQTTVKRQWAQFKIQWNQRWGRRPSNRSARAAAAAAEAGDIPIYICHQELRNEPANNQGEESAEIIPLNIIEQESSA
The experiment is described as follows: whole-cell competition vs 125I-human calcitonin (Assay VIIa). An outline of the steps: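 BHK tk'ts 13 cells stably co-expressing human calcitonin receptor and a CRE-luciferase reporter, seeded overnight at 37 °C. Bound tracer counted by scintillation after cold HBSS washes and NaOH/SDS lysis; IC₅₀ from one-site competition fit taken as receptor affinity.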
As a reminder, the IC50 is the concentration that inhibits the measured activity by half. Regarding {C20 diacid-γGlu-AEEA-AEEA-AEEA}-ASELSTAALGRLSAELHELATLPRTETGSGSP-NH2 (also called Ex. #43) [[N-terminal(C20 diacid-gGlu-3xOEG), des1, 30S, 31G]mimylin], the IC50 amounted to 0.352 nM.
On to B1, for which the IC50 worked out at 0.59 nM.
The value for B2 was 0.605 nM; that for {C14 diacid-γGlu}-ASELSTAALGRLSAELHELATLPRTETGPESP-NH2 (also called Ex. #19) [[N-terminal(C14 diacid-gGlu), des1]mimylin] was 0.515 nM; that for B3 was 0.798 nM.
The value for {C12 diacid}-EASELSTAALGRLSAELHELATLPRTETGPESP-NH2 (also called Ex. #6) [[N-terminal(C12 diacid)]mimylin] was 5.68 nM.
Under {C14 diacid-γGlu-γGlu-AEEA-AEEA-AEEA-AEEA}-EASELSTAALGRLSAELHELATLPRTETGPESP-NH2 (also called Ex. #5) [[N-terminal(C14 diacid-2xgGlu-4xOEG)]mimylin] stands 6.51 nM; under {C16 diacid}-EASELSTAALGRLSAELHELATLPRTETGPESP-NH2 (also called Ex. #3) [[N-terminal(C16 diacid)]mimylin], 0.413 nM; under {C14 diacid}-EASELSTAALGRLSAELHELATLPRTETGPESP-NH2 (also called Ex. #4) [[N-terminal(C14 diacid)]mimylin], 1.05 nM.
B4: the half-inhibitory concentration (IC50) amounted to 1.17 nM.
Under {C20 diacid}-EASELSTAALGRLSAELHELATLPRTETGSGSP-NH2 (also called Ex. #22) [[N-terminal(C20 diacid), 30S, 31G]mimylin] stands 0.188 nM; under B5, 2.54 nM.
The value for B6 was 2.27 nM.
Under Palmitoyl-EASELSTAALGRLSAELHELATLPRTETGPESP-NH2 (also called Ex. #7) [[N-terminal(C16)]mimylin] stands 0.834 nM.

The record behind these values is patent publication US20160272683A1 (Novo Nordisk, published 2016).
